In patent US20250332277A1 (Eli Lilly, published 2025):

Columns and labels:
[1] = molecular target: T1, human PTK-7 on cells (OV90-PTK-7, NCI-H446, OVCAR-3) (human, UniProt Q13308 31-1070); test: cell-based or functional assay
T1 sequence: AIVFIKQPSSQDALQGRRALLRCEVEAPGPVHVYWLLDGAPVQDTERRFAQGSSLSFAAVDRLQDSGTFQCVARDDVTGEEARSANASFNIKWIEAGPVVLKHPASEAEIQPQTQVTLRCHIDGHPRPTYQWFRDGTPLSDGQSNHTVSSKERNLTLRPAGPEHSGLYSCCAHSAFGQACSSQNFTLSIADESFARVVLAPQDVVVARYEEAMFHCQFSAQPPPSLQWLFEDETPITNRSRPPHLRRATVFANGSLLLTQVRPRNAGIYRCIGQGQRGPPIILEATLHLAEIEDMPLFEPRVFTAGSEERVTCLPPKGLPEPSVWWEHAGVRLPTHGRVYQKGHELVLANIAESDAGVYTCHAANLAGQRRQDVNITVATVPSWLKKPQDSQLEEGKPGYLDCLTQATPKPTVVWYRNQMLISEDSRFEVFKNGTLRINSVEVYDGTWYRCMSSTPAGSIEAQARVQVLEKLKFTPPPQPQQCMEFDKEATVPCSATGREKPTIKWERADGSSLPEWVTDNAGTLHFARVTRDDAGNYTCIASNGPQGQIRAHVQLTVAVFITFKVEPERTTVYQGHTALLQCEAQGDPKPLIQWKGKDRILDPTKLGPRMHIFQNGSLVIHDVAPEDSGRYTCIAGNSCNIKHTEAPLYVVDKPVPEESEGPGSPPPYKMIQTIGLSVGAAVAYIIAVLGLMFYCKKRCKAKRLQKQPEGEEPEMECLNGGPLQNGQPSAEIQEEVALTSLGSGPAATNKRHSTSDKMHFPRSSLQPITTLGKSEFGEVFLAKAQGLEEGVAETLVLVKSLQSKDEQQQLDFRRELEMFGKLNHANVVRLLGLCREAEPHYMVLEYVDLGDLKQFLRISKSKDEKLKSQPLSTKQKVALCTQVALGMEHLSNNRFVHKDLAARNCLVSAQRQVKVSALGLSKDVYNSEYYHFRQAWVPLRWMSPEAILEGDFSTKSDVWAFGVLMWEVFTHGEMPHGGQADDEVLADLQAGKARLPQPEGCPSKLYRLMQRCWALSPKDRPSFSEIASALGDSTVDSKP

[2] = molecular target: T2, recombinant human PTK7 (Acro Biosystems Cat. No. PT7-H52H3) (human, UniProt Q13308 31-704); test: SPR, Biacore 8K+, ADC captured by anti-human Fc, human PTK7 as analyte, 37 C, 1:1 model
T2 construct: Bought recombinant protein; also called human PTK7 analyte
T2 sequence: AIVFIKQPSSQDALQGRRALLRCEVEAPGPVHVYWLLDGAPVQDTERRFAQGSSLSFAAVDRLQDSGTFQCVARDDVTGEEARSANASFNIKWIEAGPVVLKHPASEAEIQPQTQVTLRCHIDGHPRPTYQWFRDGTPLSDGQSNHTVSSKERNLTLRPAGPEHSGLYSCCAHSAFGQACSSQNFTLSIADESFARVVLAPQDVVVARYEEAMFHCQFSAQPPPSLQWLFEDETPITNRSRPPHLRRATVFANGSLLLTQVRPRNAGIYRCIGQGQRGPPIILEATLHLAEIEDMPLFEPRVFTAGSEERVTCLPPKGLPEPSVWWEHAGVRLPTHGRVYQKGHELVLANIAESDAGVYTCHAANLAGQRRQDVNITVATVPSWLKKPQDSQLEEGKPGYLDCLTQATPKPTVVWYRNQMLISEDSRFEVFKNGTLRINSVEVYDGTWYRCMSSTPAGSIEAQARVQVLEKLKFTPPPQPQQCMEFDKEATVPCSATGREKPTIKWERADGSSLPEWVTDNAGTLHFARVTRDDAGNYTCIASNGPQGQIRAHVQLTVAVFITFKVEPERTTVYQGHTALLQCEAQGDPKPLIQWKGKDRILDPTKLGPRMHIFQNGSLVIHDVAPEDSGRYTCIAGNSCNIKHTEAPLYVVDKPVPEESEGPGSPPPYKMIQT
Description: A Biacore 8K+ instrument (Cytiva, Marlborough, MA) was used to determine kinetics and affinity parameters for the binding interactions of ADCs binding to recombinant human PTK7 (Acro Biosystems Cat. No. PT7-H52H3, Newark, DE).
In each analysis cycle, a different ADC was captured on flow cell 2 of each channel by injecting a 5 μg/mL solution at 10 μL/min for 2 minutes. After capture, the same analyte was injected on flow cells 1 and 2 in all 8 channels for 2 minutes at 30 μL/min and dissociation was monitored for 10 minutes. After dissociation, all surfaces were regenerated with three consecutive 1-minute injections of 75 mM phosphoric acid at 10 μL/min. ADC capture and analyte cycles were repeated to obtain human PTK7 analyte binding of each ADC at analyte concentrations of 0, 2.47, 7.41, 22.2, 66.7, 200, and 600 nMs.
Sensorgram data were reference subtracted and blank subtracted, then globally fit with the default 1:1 binding model in Biacore Insight Evaluation Software v3.0.12.15655, as shown in Table 4.

Kd [2]: 101 nM
koff [2]: 0.0372 s⁻¹
kon [2]: 368000 M⁻¹ s⁻¹
B1: Ab4-PSAR10-VA-exatecan (other)
heavy: EVQLVESGGGLVKPGGSLRLSCAASGFTFSSYSMNWVRQAPGKGLEWVSSIDSSSSFIYYADSVKGRFTISRDNAKNSLYLQMNSLRAEDTAVYYCARGTGLFDFWGQGTLVTVSSASTKGPSVFPLAPSSKSTSGGTAALGCLVKDYFPEPVTVSWNSGALTSGVHTFPAVLQSSGLYSLSSVVTVPSSSLGTQTYICNVNHKPSNTKVDKRVEPKSCDKTHTCPPCPAPEAAGGPSVFLFPPKPKDTLMISRTPEVTCVVVSVSHEDPEVKFNWYVDGVEVHNAKTKPREEQYNSTYRVVSVLTVLHQDWLNGKEYKCKVSNKALPAPIEKTISKAKGQPREPQVYTLPPSREEMTKNQVSLTCLVKGFYPSDIAVEWESNGQPENNYKTTPPVLDSDGSFFLYSKLTVDKSRWQQGNVFSCSVMHEALHNHYTQKSLSLSPGK
light: EIVLTQSPGTLSLSPGERATLSCRASQSFSSSYLAWYQQKPGQAPRLLIYGASSRATGIPDRFSGSGSGTDFTLTISRLEPEDFAVYYCQQYGRTPWTFGQGTKVEIKRTVAAPSVFIFPPSDEQLKSGTASVVCLLNNFYPREAKVQWKVDNALQSGNSQESVTEQDSKDSTYSLSSTLTLSKADYEKHKVYACEVTHQGLSSPVTKSFNRGEC
modifications: PSAR10-VA-exatecan linker-payload (Formula XV) on cysteine thiols after full reduction of the antibody (DAR 8 procedure); positions not stated for this ADC
notes: Antibody-drug conjugate of Ab4; also called Ab4-VA-Exatecan
Cytotoxicity IC50, OVCAR-3 cells (CellTiter-Glo, 7 days) [1]: 2.02 nM
